{"source": "the DeepSol protein solubility set"}
{"test": "soluble on expression in E. coli; label from the status in PepcDB or PDB records"}
{"sequence": "MSVRLPLLLRQLGRQQLPSGPACRLRELCRSGSRSSSSGGGDPEGLRGRRLQDGQTFSSHGPGNPEAPGMDSIVRDVIHNSKEVLSLLQEKNPAFKPVLVVIQAGDDNLMKDMNQNLAKEAGLDITHICLPPDSGEDEIIDEILKINEDPRVHGLTLQISEDSLSNKVLNALKPEKDVDGVTDINLGKLVRGDAPECFVSPLAKAAVELVEKSGITLDGKKVLVVGAHGPLEAALQWLFQRKGFMTMSCPWAPPQLPDKLREADIVVLGSPKPEEIPAVWIPSGTTILNCFHDFLSGKLSGGSPGVPVDKLIAEESVSLLAAALRIQNMVSSGRRWLREQQHRRWRLHCLKLQPLSPVPSDIEISRGQTPKAVDVLAKEIGLLADEIEIYGKSKAKVQLSLLERLKDQTDGKYVLVAGITPTPLGEGKSTVTIGLVQALTAHLKVNSFACLRQPSQGPTFGVKGGAAGGGYAQVIPMEEFNLHLTGDIHAITAANNLLAAAIDTRILHESTQTDKALYNRLVPLVNGVREFSEIQLSRLKKLGIHKTDPSTLTEEEVRKFARLNIDPATITWQRVLDTNDRFLRKITIGQGSTEKGYSRQAQFDIAVASEIMAVLALTDSLTDMKERLGRMVVASDKDGQPVTAEDLGVTSALTVLMKDAIKPNLMQTLEGTPVFVHPGPFANIAHANSSVLTDKIALKFVGEEGFVVTEAGFGADIGMEKFFNIKCRASGLVPNVVVLVATVRALKMHVGGPSVTAGVPLKKEYTEENIQMVADGCCNLQKQIQIAQLFGVPVVVALNVFKTDTRAEIDLVCELAKRAGAFDAVPCYHWSAGGKGSVDLARAVREAANKRSRFQFLYDVQLPIVEKIRVIAQTVYGAKDIELSPEAQSKIDRYTQQGFGNLPICMAKTHLSLSHEPDKKGVPRDFTLPISDVRASIGAGFIYPLVGTMSTMPGLPTRPCFYDIDLDTETEQVKGLF", "soluble on expression in E. coli": "soluble"}
{"sequence": "MNQAIQFPDREEWDENKKCVCFPALVNGMQLTCAISGESLAYRFTGDTPEQWLASFRQHRWDLEEEAENLIQEQSEDDQGWVWLP", "soluble on expression in E. coli": "not soluble"}
{"sequence": "MDELLNRLRQTWHSTIPVSEFMQIAPLSFTDGELSVSAPLAPNINLHHTMFAGSIYTIMTLTGWGMVWLQQQLLNVDGDIVLADAHIRYLAPVTSAPEVKVRWPDTNLSPLQRGRKAKVKLEVQLFCDGKLCAQFDGLYVSVPKMLEHHHHHH", "soluble on expression in E. coli": "soluble"}
{"sequence": "MAMKQWIAALLLMLIPGVQAAKPQKVTLMVDDVPVAQVLQALAEQEKLNLVVSPDVSGTVSLHLTDVPWKQALQTVVKSAGLITRQEGNILSVHSIAWQNDNIARQEAEQARAQANLPLENRSITLQYADAGELAKAGEKLLSAKGSMTVDKRTNRLLLRDNKTALSALEQWVAQMDLPVGQVELSAHIVTINEKSLRELGVKWTLADAQHAGGVGQVTTLGSDLSVATATTHVGFNIGRINGRLLDLELSALEQKQQLDIIASPRLLASHLQPASIKQESEIPYQVSSGESGATSVEFKEAVLGMEVTPTVLQKGRIRLKLHISQNVPGQVLQQADGEVLAIDKQEIETQVEVKSGETLALGGIFTRKNKSGQDSVPLLGDIPWFGQLFRHDGKEDERRELVVFITPRLVSSELEHHHHHH", "soluble on expression in E. coli": "soluble"}
{"sequence": "MTQNINQLAVNTIRTLSIDAINAANSGHPGLPMGAAPMAYALWANHLNHNPNHPKWFNRDRFVLSAGHGSSLLYSLLHLAGYDVSIDDLKNFRKLNSKTPGHPEFGHTSGVEATTGPLGQGIANAVGMAMAEAHLAAKFNKDGHSIIDHNTYALVGDGDLMEGVAYEAMSMEGVAYEAMSMAGHMKLGKLIVLYDSNEISLDGELNIAFSEDMQKRVESAHWQYVRVEDGNDVDAITKAIQLAKDNTDQPTLIEIRTVIGYGSPKVAGTNKAHGNPLGLEEATATKQVYGWHYEEDFFVPEEVTAHFNELKQKGIEKERGWNEQFNLYRESNPALADELEKAIIGEVLIEAKDILSFDSEKTISTRVASGEAINHYVKSIPSIFGGSADLSHSTMTDIKGEAVYAVESYAGRNIYFGVREHAMGAAANGLALHGGVKPFVSTFFVFNDYLRPSIRLAALQKLPVTYVFTHDSIAVGEDGPTHEPIEHLAALRAIPGLTVIRPSDANETASAWAYALQQTEGPVVLVLSRQNLPVFHETKANIENLSKGAYVLTQTNENPDVILIATGSEVSLAASAKAKLEEDNVSVRIVAMPSWELFDRQSKEYKESVLPSSVTKRVSLEMGVSLGWERYVGQEGNILSIETFGASGTGAEVMNLFGFTTENVVQITKNVLNS", "soluble on expression in E. coli": "not soluble"}
{"sequence": "GMQTLNDIYLAYLDSLNHQAFDELGTFVDDNVEHNGRPFGLSGYRDMLVKDFADIPDLRFEAEILVSDATRLAARLFFDCTPKSIFMDLPVNGRRVQFCEHVFYDFEQAKIRRVWSVLDKVAIERQLG", "soluble on expression in E. coli": "soluble"}
{"sequence": "MTDLPLTGRARPDRRPHTLAEWRAEGGYEAVDRARSMAPAEIIDMVEAAHLNGRGGAGFPAGRKWRFMPERGTSPGEGPSYLIVNGDEMEPGAFKDRFLLEALPHQVIEGAIITARATHADEAIVLIRDEYRPGIAAVERAIHEARDAGLLGDLAIRVHPSAGRYIVGEETALITALEGHRAVPRKRPPFPAQSGLWGRPTTVNNVETISLVPHILSLGPQRFRALSRTEEGGTKLYGVSGRVKRPGLFEAPMGTTARELIERAGGVSGDGQLRAFQPGGGASGFFGPDRLDLPLDFGHVAKAGSMFGTGMLIVLDGTACPVGFLARHMRFYARESCGWCTPCREGLPLVAKILDRFAAGQGRRADLELLQMTAAEAAPRGRSFCDLMGGAMAPLASGLSMFAAEFEARLAEGERALEHHHHHH", "soluble on expression in E. coli": "not soluble"}
{"sequence": "VSLDKKLMPVPDGHPDVFDREWPLRVGDIDRAGRLRLDAACRHIQDIGQDQLREMGFEETHPLWIVRRTMVDLIRPIEFGDMLRCRRWCSGTSNRWCEMRVRVDGRKGGLIESEAFWIHVNRETEMPARIADDFLAGLHRTTSVDRLRWKGYLKPGSRDDASEIHEFPVRVTDIDLFDHMNNAVYWSVIEDYLASHAELLRGPLRVTIEHEAPVALGDKLEIISHVHPAGSTEIFGPGLVDRAVTTLTYVVGDEPKAVASLFNL", "soluble on expression in E. coli": "soluble"}
{"sequence": "AHHHHHHGSNLRNKLKLYVITDRRLKPEVESVREALEGGATAIQMRIKNAPTREMYEIGKTLRQLTREYDALFFVDDRVDVALAVDADGVQLGPEDMPIEVAKEIAPNLIIGASVYSLEEALEAEKKGADYLGAGSVFPTKTKEDARVIGLEGLRKIVESVKIPVVAIGGINKDNAREVLKTGVDGIAVISAVMGAEDVRKATEELRKIVEEVLG", "soluble on expression in E. coli": "soluble"}
{"sequence": "MTSTTPLEPERWTPHATVATIVEKDGKFLLVEEKRLINSQGDFGIVYNQPAGHVDEGESIMAAAIRETLEETRWQVKLKHLVGIYIFTAPANNVTYHRYCFAAEATVHQAESQLDDGILDAKWLSWEEIQQLDNLRSPLVKRCIKDHIDGKHYPLDVIYEYADHEHTDDENKSQELEDRND", "soluble on expression in E. coli": "soluble"}
{"sequence": "MGSDKIHHHHHHMPMNRIDRLLGMITLLQAKKFVSAEKIADKFKISKRTVFRDIKAICEQGIPVGSEPNKGYFIVDGYFLPPVLFNNDEANALLLTESLVKGFADKSISKHYSNALDKIKAGLKQVDKDKLEHMQDAIKFQLPERMNNDFEYLSILQVAVSDKKIIYIDYKNNKEEVSKREIEPIGLIFYAFSWHLIGWCHHRKAYRDFKVSRIIQMKNTGVPFKKNKHMPLSEYMKELPVNY", "soluble on expression in E. coli": "not soluble"}
{"sequence": "MSKLSIRNLTKIFGPHPEKALGLLEQGLGKEEIHRRTSHAVGVDRASFDVEEGEIVVVMGLSGSGKSTLVRCLNRLIEPTAGTVTVDGRDVTSMPVDELRRLRQRSFGMVFQNFALFPHRTVLQNAAFGLEAMGVPRAERERQAMVSLERVGLAEWAASRPAQLSGGMQQRVGLARALSLDPDILLMDEAFSALDPLIRRDMQDELLRLQDDLQKTIVFISHDLDEALKLGDRIVLMRDGAVVQIGTPEDILTNPADDYVARFVGEADVTKVLTAGSVMKRSEAVAVLGIDGPRTALRKMRRNAIATLFVLDERHRLVGLITADDAARLAAEGVRELGSIVRRDIATVPPEAPATELISLMADLPHPLAVVDERGRLAGVIVRGLLLGALAERGGVALEHHHHHH", "soluble on expression in E. coli": "not soluble"}
{"sequence": "SGTNDAEDCCLSVTQKPIPGYIVRNFHYLLIKDGCRVPAVVFTTLRGRQLCAPPDQPWVERIIQRLQRTSAKMKRRSS", "soluble on expression in E. coli": "soluble"}
{"sequence": "MDSLEKIKEEVISCKKCKLWQFRTNAVPGEGYPKAEIMFVGEAPGENEDKEGRPFVGAAGKLLTQMIKEILGLERDQVFITNVVKCRPPNNRDPEEDEITACSPYLDRQIDIIMPKIIVTLGRHSTKYIFSKMGENFSSITKVRGKSYVWKYKEKEIIVFPTYHPAAALYNPNLRKILEEDFKKIRELAITPKRYTIDYFLGGKNRSWDKREKSDSNSGK", "soluble on expression in E. coli": "soluble"}
